Assay results taken from article PMC6013482, “Conformational switching of the pseudokinase domain promotes human MLKL tetramerization and cell death by necroptosis” (Nature Communications, 2018).

B1: wild-type human MLKL (residues 2–471), recombinant (natural protein, UniProt Q8NB16 2-471, looked up)
chain: ENLKHIITLGQVIHKRCEEMKYCKKQCRRLGHRVLGLIKPLEMLQDQGKRSVPSEKLTTAMNRFKAALEEANGEIEKFSNRSNICRFLTASQDKILFKDVNRKLSDVWKELSLLLQVEQRMPVSPISQGASWAQEDQQDADEDRRAFQMLRRDNEKIEASLRRLEINMKEIKETLRQYLPPKCMQEIPQEQIKEIKKEQLSGSPWILLRENEVSTLYKGEYHRAPVAIKVFKKLQAGSIAIVRQTFNKEIKTMKKFESPNILRIFGICIDETVTPPQFSIVMEYCELGTLRELLDREKDLTLGKRMVLVLGAARGLYRLHHSEAPELHGKIRSSNFLVTQGYQVKLAGFELRKTQTSMSLGTTREKTDRVKSTAYLSPQELEDVFYQYDVKSEIYSFGIVLWEIATGDIPFQGCNSEKIRKLVAVKRQQEPLGEDCPSELREIIDECRAHDPSVRPSVDEILKKLSTFSK
notes: human MLKL, residues 2–471; Elutes as oligomer (tetramer) and monomer peaks; the peaks were pooled except where indicated; Native MS used the oligomer SEC fraction; also called hMLKL; wild-type hMLKL; source: Sf21 insect cells (baculovirus), purified (glutathione agarose, TEV cleavage, Superdex S200); not shown: GST, N-terminal, cleaved

What was measured:
[1] = molecular target: the molecule itself; experiment: native MS; 250 mM ammonium acetate, nano electrospray; wild type: the oligomer SEC fraction; self-association
[2] = molecular target: the molecule itself; experiment: AUC; sedimentation velocity, 0.25, 0.5 or 1 mg/mL hMLKL, 20 mM HEPES pH 7.5, 200 mM NaCl, 50,000 rpm, 20 °C; at 1 mg/mL also with 300 μM ATP; self-association (tetramer and monomer)
[3] = molecular target: B1; experiment: SPR; SBP-hRIPK3 (2–356) immobilised on a streptavidin chip (Biacore SA); hMLKL flowed over at 1, 0.5, 0.25, 0.125, 0.0625 and 0 μM, 30 μL/min; 20 mM HEPES pH 8.0, 200 mM NaCl; 25 °C; conditions: both partners purified

## B1
[1]
  stoichiometry N: 4

B2: K331N human MLKL (residues 2–471), recombinant (natural protein, UniProt Q8NB16 2-471, looked up)
chain: ENLKHIITLGQVIHKRCEEMKYCKKQCRRLGHRVLGLIKPLEMLQDQGKRSVPSEKLTTAMNRFKAALEEANGEIEKFSNRSNICRFLTASQDKILFKDVNRKLSDVWKELSLLLQVEQRMPVSPISQGASWAQEDQQDADEDRRAFQMLRRDNEKIEASLRRLEINMKEIKETLRQYLPPKCMQEIPQEQIKEIKKEQLSGSPWILLRENEVSTLYKGEYHRAPVAIKVFKKLQAGSIAIVRQTFNKEIKTMKKFESPNILRIFGICIDETVTPPQFSIVMEYCELGTLRELLDREKDLTLGKRMVLVLGAARGLYRLHHSEAPELHGNIRSSNFLVTQGYQVKLAGFELRKTQTSMSLGTTREKTDRVKSTAYLSPQELEDVFYQYDVKSEIYSFGIVLWEIATGDIPFQGCNSEKIRKLVAVKRQQEPLGEDCPSELREIIDECRAHDPSVRPSVDEILKKLSTFSK
notes: human MLKL, residues 2–471, with K331N in the pseudocatalytic loop; also called K331N hMLKL; K331N hMLKL(2–471); source: Sf21 insect cells (baculovirus), purified (glutathione agarose, TEV cleavage, Superdex S200); not shown: GST, N-terminal, cleaved
[2]
  stoichiometry N: 4

B3: Streptavidin-binding peptide (SBP)-tagged human RIPK3 kinase domain (residues 2–356) (domain or fragment, UniProt Q9Y572 2-356, looked up)
chain: SCVKLWPSGAPAPLVSIEELENQELVGKGGFGTVFRAQHRKWGYDVAVKIVNSKAISREVKAMASLDNEFVLRLEGVIEKVNWDQDPKPALVTKFMENGSLSGLLQSQCPRPWPLLCRLLKEVVLGMFYLHDQNPVLLHRDLKPSNVLLDPELHVKLADFGLSTFQGGSQSGTGSGEPGGTLGYLAPELFVNVNRKASTASDVYSFGILMWAVLAGREVELPTEPSLVYEAVCNRQNRPSLAELPQAGPETPGLEGLKELMQLCWSSEPKDRPSFQECLPKTDEVFQMVENNMNAAVSTVKDFLSQLRSSNRRFSIPESGQGGTEMDGFRRTIENQHSRNDVMVSEWLNKLNLEE
notes: human RIPK3 kinase domain, residues 2–356; The His6 fusion is TEV protease-cleavable; also called SBP-hRIPK3; hRIPK3 kinase domain; source: Sf21 insect cells (bacmid from pFastBac Htb); not shown: SBP, N-terminal, kept
[3]
  binding result: binds
